Results published in paper PMC9737693, “Efficient Production of Fc Fusion Proteins in the Cytoplasm of Escherichia coli: Dissecting and Mitigating Redox Heterogeneity” (International Journal of Molecular Sciences, 2022).

Biological target: the molecule itself
Assay: non-reducing SDS-PAGE; purified proteins, non-reduced and trapped with 25 mM NEM at room temperature for 10 min, SDS-PAGE, Coomassie Blue R-250; dimer seen as a covalently (disulfide) linked band

B1: IgG1 CH2 domain with the hinge region (T106-A222) (domain or fragment, human, UniProt P01857 106-222, looked up)
chain: THTCPPCPAPELLGGPSVFLFPPKPKDTLMISRTPEVTCVVVDVSHEDPEVKFNWYVDGVEVHNAKTKPREEQYNSTYRVVSVLTVLHQDWLNGKEYKCKVSNKALPAPIEKTISKA
notes: human IgG1 hinge region and CH2 domain, residues T106-A222 of immunoglobulin heavy constant gamma 1, amplified from pAAT44; The dimer is told only for the protein made in the presence of CyDisCo (intermolecular hinge disulfide); also called IgG1 CH2 domain with hinge; hinge region fused to the CH2 domain; source: E. coli BL21(DE3) cytoplasm with CyDisCo (Erv1p, PDI), purified (cobalt IMAC)
  binding result: binds
